Assay in all cases: ELISA, coated antigen, Ab 0.25 ug/ml
The target of experiment [1] is Human Id1: Histidine (human) (UniProt P41134).
A further experiment has as its target T1, Mouse Id1: Histidine (mouse, UniProt P20067-2 1-148).
T1 construct: E. coli fusion protein (vector pGW07); also called m-Id1-His; not shown: His-tag
T1 sequence: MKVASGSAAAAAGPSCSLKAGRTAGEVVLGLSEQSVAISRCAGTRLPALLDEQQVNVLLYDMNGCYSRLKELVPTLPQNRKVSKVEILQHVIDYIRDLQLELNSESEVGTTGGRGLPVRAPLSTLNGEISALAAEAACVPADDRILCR
The protocol: (§1) Incubate plates at 2-8° C. overnight (16-24 hours). [0145] 11. Shake off the BSA solution. [0146] 12. Dispense 250 μL of 2.5% sucrose solution into each well. [0147] 13. Incubate plates at 2-8° C. for 4 hours. [0148] 14. Shake off sucrose solution. [0149] 15. Dry in vacuum at room temperature overnight. Screening Method [0150] 1. Dispense 100 μL of antibody diluent, diluted rabbit polyclonal anti-Id1 into appropriate wells. […] 2. Incubate at room temperature with mechanical shaking at 750 rpm for 90 minutes. [0152] 3. Remove the incubation mixture by flicking plate content into an appropriate waste container, followed by rinsing the wells 5 times with distilled water. […] 4. Strike the wells sharply onto absorbent paper or paper towels to remove all residual water droplets. [0154] 5. Dispense 100 μL of Goat Anti-Rabbit IgG-HRP Conjugate Reagent into each well. Gently mix for 5 seconds. [0155] 6. Incubate at room temperature with mechanical shaking at 750 rpm for 90 minutes. […] 7. Repeat procedures 3 and 4. [0157] 8. Dispense 100 μL of TMB Reagent into each well. Gently mix for 5 seconds. [0158] 9. Incubate at room temperature with mechanical shaking at 750 rpm for 20 minutes. [0159] 10. Add 100 μL of Stop Solution (1N HCl) into each well. [0160] 11. Gently mix for 10 seconds to ensure a complete mixing. […] 12. Read optical density (absorbance) at 450 nm. Results from this assay were used to select the rabbit sera with the highest antibodies titer that selectively reacts with mouse Id1 or human Id1 or both.
(§2) A comparison was carried out between the reactivity of the rabbit monoclonal anti-mouse Id1, clone #BCH-1/#37-2, of this invention and the mouse monoclonal anti-mouse/human Id1 from BD Pharmingen with the following antigens prepared in Example 5: mouse Id1:His, human Id1:His, human Id2:His, human Id3:His, and GST. These antigens and protein were used to coat the wells.
(§3) Materials and methods were those described in Example 9 except (a) Pharmingen's mouse monoclonal anti-mouse Id1 was used in addition to the rabbit monoclonal anti-mouse Id1 (Example 10), and (b) goat anti-mouse IgG-HRP conjugate was used to process the wells treated with the Pharmingen monoclonal antibody and polyclonal goat anti-rabbit IgG-HRP conjugate was used to process wells treated with rabbit monoclonal anti-mouse Id1.

Experiment [2] has as its target T2, glutathione S-transferase (GST) (UniProt P08515 1-218 = GST).
T2 construct: Coated on wells as control for the fusion partner of the immunogen
The protocol: as §1, §2, §3

The target of the next experiment is T3, Human Id3: Histidine (human, UniProt Q02535 1-119, limits assumed).
T3 construct: E. coli fusion protein (vector pGW07); also called h-Id3: His; not shown: His-tag
T3 sequence (looked up): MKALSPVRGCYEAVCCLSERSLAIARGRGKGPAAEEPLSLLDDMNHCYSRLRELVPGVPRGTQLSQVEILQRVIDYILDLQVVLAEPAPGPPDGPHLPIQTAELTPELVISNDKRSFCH
On the procedure: as §1, §2, §3

For a further experiment, the target named is T4, Human Id2: Histidine (human, UniProt Q02363 1-134, limits assumed).
T4 construct: E. coli fusion protein (vector pGW07); also called h-Id2: His; not shown: His-tag
T4 sequence (looked up): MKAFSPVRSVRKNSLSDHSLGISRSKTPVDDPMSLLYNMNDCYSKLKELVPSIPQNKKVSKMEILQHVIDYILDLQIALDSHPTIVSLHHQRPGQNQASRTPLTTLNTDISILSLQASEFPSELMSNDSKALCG
On the procedure: as §1, §2, §3

Experimental findings from patent publication US20060286609A1 (BIOCHECK, published 2006) are described below.

T2 sequence (P08515 whole entry, the tested form may be a part): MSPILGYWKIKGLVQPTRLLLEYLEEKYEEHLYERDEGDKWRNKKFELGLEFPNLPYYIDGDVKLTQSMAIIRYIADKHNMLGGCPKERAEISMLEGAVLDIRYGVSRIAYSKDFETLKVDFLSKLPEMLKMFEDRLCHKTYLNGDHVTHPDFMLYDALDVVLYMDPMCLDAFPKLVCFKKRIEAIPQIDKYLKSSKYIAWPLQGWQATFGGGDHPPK

B1: rabbit monoclonal anti-mouse Id1, clone #BCH-1/#37-2 (antibody, V domains shown)
VH: QSVEESGGRLVTPGTPLTLTCKVSGFDINSYAMDWFRQAPGKGLEWIGMMSTRGNTYYTSWAKGRFTISKTSSTTVDLKMTSLTTEDTATYFCARGGLWGPGTLVTVSS
VL: RVLTQTASPVSAAVGGTVTINCQASQSVYNGNRLGWYQLKPGQSPKELIHDASTLASGVPSRFRGSGSGTQFTLTINDVQCDDAATYYCVGSYACSTGDCNVFGGGTEVVVK
notes: Rabbit IgG from hybridoma, Protein G purified; also called m Id1 MoAb 37-2; Rabbit Monoclonal Anti-Mouse Id1 (#37-2)
In the case of B1, the A450 is 0.07 A450 in experiment [1]; 2 A450 with Mouse Id1: Histidine; 0.051 A450 in experiment [2]; 0.047 A450 with Human Id3: Histidine; 0.049 A450 with Human Id2: Histidine.
